Data: paper doi:10.1101/2021.08.21.457230

Biological target: T1, human SLC44A1 (human), Q8WWI5
T1 chain: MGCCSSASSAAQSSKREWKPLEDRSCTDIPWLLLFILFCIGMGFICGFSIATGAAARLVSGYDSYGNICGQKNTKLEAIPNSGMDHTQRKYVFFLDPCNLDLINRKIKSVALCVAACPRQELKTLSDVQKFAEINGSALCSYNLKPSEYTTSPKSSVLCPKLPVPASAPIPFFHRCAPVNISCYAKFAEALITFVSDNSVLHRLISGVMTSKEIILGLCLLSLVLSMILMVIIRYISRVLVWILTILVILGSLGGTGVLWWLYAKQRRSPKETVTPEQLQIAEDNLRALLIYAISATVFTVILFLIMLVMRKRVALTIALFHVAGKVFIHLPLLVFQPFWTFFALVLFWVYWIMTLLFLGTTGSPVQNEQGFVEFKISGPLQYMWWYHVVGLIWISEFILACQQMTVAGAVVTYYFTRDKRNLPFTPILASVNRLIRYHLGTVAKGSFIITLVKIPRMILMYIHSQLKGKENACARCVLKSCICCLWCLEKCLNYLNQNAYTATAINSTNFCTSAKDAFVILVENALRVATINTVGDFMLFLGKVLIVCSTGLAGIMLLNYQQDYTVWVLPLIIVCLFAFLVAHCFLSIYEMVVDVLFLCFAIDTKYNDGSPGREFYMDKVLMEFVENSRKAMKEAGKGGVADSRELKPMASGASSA
Assay: cryo-EM structure
Conditions: remark: other sources report otherwise

B1: human SLC44A1, Q8WWI5 1-657 (natural protein)
chain: MGCCSSASSAAQSSKREWKPLEDRSCTDIPWLLLFILFCIGMGFICGFSIATGAAARLVSGYDSYGNICGQKNTKLEAIPNSGMDHTQRKYVFFLDPCNLDLINRKIKSVALCVAACPRQELKTLSDVQKFAEINGSALCSYNLKPSEYTTSPKSSVLCPKLPVPASAPIPFFHRCAPVNISCYAKFAEALITFVSDNSVLHRLISGVMTSKEIILGLCLLSLVLSMILMVIIRYISRVLVWILTILVILGSLGGTGVLWWLYAKQRRSPKETVTPEQLQIAEDNLRALLIYAISATVFTVILFLIMLVMRKRVALTIALFHVAGKVFIHLPLLVFQPFWTFFALVLFWVYWIMTLLFLGTTGSPVQNEQGFVEFKISGPLQYMWWYHVVGLIWISEFILACQQMTVAGAVVTYYFTRDKRNLPFTPILASVNRLIRYHLGTVAKGSFIITLVKIPRMILMYIHSQLKGKENACARCVLKSCICCLWCLEKCLNYLNQNAYTATAINSTNFCTSAKDAFVILVENALRVATINTVGDFMLFLGKVLIVCSTGLAGIMLLNYQQDYTVWVLPLIIVCLFAFLVAHCFLSIYEMVVDVLFLCFAIDTKYNDGSPGREFYMDKVLMEFVENSRKAMKEAGKGGVADSRELKPMASGASSA
- stoichiometry N: 2
